{"source": "the supplement of paper PMC9112550", "about": "“Optimization of the antimicrobial peptide Bac7 by deep mutational scanning” (BMC Biology, 2022);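 note: peptides expressed intracellularly from a pBAD plasmid library in pooled LB shake-flask culture, induced with 0.3% L-arabinose, DNA abundance read by NGS, three biological replicates, DESeq2 with apeglm shrinkage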", "test_system": "Escherichia coli TOP10", "assay": "shrunken log2 fold change of peptide-encoding DNA abundance (4.5 h post-induction vs induction); higher = less antimicrobial activity (less host growth inhibition)", "conditions": "time post-induction: 4.5 h; library: site-saturation at positions 5, 18, 19, 20"}
{"sequence": "RRIRRRPPRLPRPRPRPPKWPRP", "values": [{"measurement": "shrunken log2 fold change", "result": 0.628}]}
{"sequence": "RRIRERPPRLPRPRPRPWSYPRP", "values": [{"measurement": "shrunken log2 fold change", "result": 0.0168}]}
{"sequence": "RRIRSRPPRLPRPRPRPQCDPRP", "values": [{"measurement": "shrunken log2 fold change", "result": -0.193}]}
{"sequence": "RRIRKRPPRLPRPRPRPPKPPRP", "values": [{"measurement": "shrunken log2 fold change", "result": 0.319}]}
{"sequence": "RRIRYRPPRLPRPRPRPLNTPRP", "values": [{"measurement": "shrunken log2 fold change", "result": -0.234}]}
{"sequence": "RRIRCRPPRLPRPRPRPEFWPRP", "values": [{"measurement": "shrunken log2 fold change", "result": 0.163}]}
{"sequence": "RRIRARPPRLPRPRPRPWLVPRP", "values": [{"measurement": "shrunken log2 fold change", "result": 0.0219}]}
{"sequence": "RRIRVRPPRLPRPRPRPPKSPRP", "values": [{"measurement": "shrunken log2 fold change", "result": 0.1}]}
{"sequence": "RRIRRRPPRLPRPRPRPPLKPRP", "values": [{"measurement": "shrunken log2 fold change", "result": 0.302}]}
{"sequence": "RRIRARPPRLPRPRPRPEMKPRP", "values": [{"measurement": "shrunken log2 fold change", "result": 3.7}]}
{"sequence": "RRIRWRPPRLPRPRPRPMSFPRP", "values": [{"measurement": "shrunken log2 fold change", "result": 0.00806}]}
{"sequence": "RRIRWRPPRLPRPRPRPCYQPRP", "values": [{"measurement": "shrunken log2 fold change", "result": 0.0103}]}
{"sequence": "RRIRVRPPRLPRPRPRPIPQPRP", "values": [{"measurement": "shrunken log2 fold change", "result": 0.485}]}
{"sequence": "RRIRARPPRLPRPRPRPVPKPRP", "values": [{"measurement": "shrunken log2 fold change", "result": 0.791}]}
{"sequence": "RRIRARPPRLPRPRPRPPNRPRP", "values": [{"measurement": "shrunken log2 fold change", "result": 0.499}]}
{"sequence": "RRIRFRPPRLPRPRPRPRTGPRP", "values": [{"measurement": "shrunken log2 fold change", "result": 0.0905}]}
{"sequence": "RRIRMRPPRLPRPRPRPWSVPRP", "values": [{"measurement": "shrunken log2 fold change", "result": -0.0283}]}
{"sequence": "RRIRCRPPRLPRPRPRPVWVPRP", "values": [{"measurement": "shrunken log2 fold change", "result": 0.195}]}
{"sequence": "RRIRERPPRLPRPRPRPYMGPRP", "values": [{"measurement": "shrunken log2 fold change", "result": -1.01}]}
{"sequence": "RRIRPRPPRLPRPRPRPIVGPRP", "values": [{"measurement": "shrunken log2 fold change", "result": -0.00131}]}
{"sequence": "RRIRFRPPRLPRPRPRPSYNPRP", "values": [{"measurement": "shrunken log2 fold change", "result": -1.04}]}
{"sequence": "RRIRPRPPRLPRPRPRPVKHPRP", "values": [{"measurement": "shrunken log2 fold change", "result": -0.0566}]}
{"sequence": "RRIRSRPPRLPRPRPRPAMFPRP", "values": [{"measurement": "shrunken log2 fold change", "result": -0.0843}]}
{"sequence": "RRIRFRPPRLPRPRPRPECWPRP", "values": [{"measurement": "shrunken log2 fold change", "result": 0.675}]}
{"sequence": "RRIRYRPPRLPRPRPRPEFFPRP", "values": [{"measurement": "shrunken log2 fold change", "result": -0.0803}]}
{"sequence": "RRIRARPPRLPRPRPRPPVKPRP", "values": [{"measurement": "shrunken log2 fold change", "result": 0.404}]}
{"sequence": "RRIRKRPPRLPRPRPRPDQAPRP", "values": [{"measurement": "shrunken log2 fold change", "result": -0.029}]}
{"sequence": "RRIRKRPPRLPRPRPRPHQSPRP", "values": [{"measurement": "shrunken log2 fold change", "result": 0.226}]}
{"sequence": "RRIRVRPPRLPRPRPRPNMCPRP", "values": [{"measurement": "shrunken log2 fold change", "result": -0.576}]}
{"sequence": "RRIRNRPPRLPRPRPRPEAPPRP", "values": [{"measurement": "shrunken log2 fold change", "result": 3.17}]}
{"sequence": "RRIRKRPPRLPRPRPRPNWAPRP", "values": [{"measurement": "shrunken log2 fold change", "result": 0.279}]}
{"sequence": "RRIRKRPPRLPRPRPRPTRDPRP", "values": [{"measurement": "shrunken log2 fold change", "result": 0.753}]}
{"sequence": "RRIRCRPPRLPRPRPRPFCDPRP", "values": [{"measurement": "shrunken log2 fold change", "result": -0.501}]}
{"sequence": "RRIRSRPPRLPRPRPRPEDIPRP", "values": [{"measurement": "shrunken log2 fold change", "result": -0.0081}]}
{"sequence": "RRIRRRPPRLPRPRPRPNMLPRP", "values": [{"measurement": "shrunken log2 fold change", "result": -0.061}]}
{"sequence": "RRIRVRPPRLPRPRPRPFWKPRP", "values": [{"measurement": "shrunken log2 fold change", "result": 0.0154}]}
{"sequence": "RRIRGRPPRLPRPRPRPLQKPRP", "values": [{"measurement": "shrunken log2 fold change", "result": 1.28}]}
{"sequence": "RRIRTRPPRLPRPRPRPCTSPRP", "values": [{"measurement": "shrunken log2 fold change", "result": -0.137}]}
{"sequence": "RRIRWRPPRLPRPRPRPKALPRP", "values": [{"measurement": "shrunken log2 fold change", "result": 0.237}]}
{"sequence": "RRIRCRPPRLPRPRPRPRWHPRP", "values": [{"measurement": "shrunken log2 fold change", "result": -0.00459}]}
{"sequence": "RRIRNRPPRLPRPRPRPSMTPRP", "values": [{"measurement": "shrunken log2 fold change", "result": 0.0898}]}
{"sequence": "RRIRMRPPRLPRPRPRPSLDPRP", "values": [{"measurement": "shrunken log2 fold change", "result": 0.663}]}
{"sequence": "RRIRDRPPRLPRPRPRPHDTPRP", "values": [{"measurement": "shrunken log2 fold change", "result": -0.123}]}
{"sequence": "RRIRFRPPRLPRPRPRPINKPRP", "values": [{"measurement": "shrunken log2 fold change", "result": -0.582}]}
{"sequence": "RRIRIRPPRLPRPRPRPLLYPRP", "values": [{"measurement": "shrunken log2 fold change", "result": 0.47}]}
{"sequence": "RRIRWRPPRLPRPRPRPKWAPRP", "values": [{"measurement": "shrunken log2 fold change", "result": 0.507}]}
{"sequence": "RRIRRRPPRLPRPRPRPRRSPRP", "values": [{"measurement": "shrunken log2 fold change", "result": 0.516}]}
{"sequence": "RRIRGRPPRLPRPRPRPNKIPRP", "values": [{"measurement": "shrunken log2 fold change", "result": 0.214}]}
{"sequence": "RRIRARPPRLPRPRPRPDIGPRP", "values": [{"measurement": "shrunken log2 fold change", "result": 0.0329}]}
{"sequence": "RRIRQRPPRLPRPRPRPLNVPRP", "values": [{"measurement": "shrunken log2 fold change", "result": -0.0218}]}
